Conditions in all cases: tags: R&D Systems; chain copies: 2
Data set [1] concerns the target T1, NGF (nerve growth factor) (Homo sapiens, UniProt P01138 P01138:122-241). Briefly: cell_activity; neurite outgrowth inhibition. How it is done:
The cells (2500 cells per well) were cultured for one day in an RPMI-1640 medium containing 2.5% horse serum and 1.25% fetal bovine serum in a 96 well flat-bottom plate coated with collagen type IV. […] Two days later, the cytoplasm and nuclei were stained using Cellomics Neurite Outgrowth Kit (manufactured by Thermo Scientific), and neurite length per cell was measured by Cellomics ArrayScan VTI (manufactured by Thermo Scientific). With the neurite length per cell obtained by the addition of NGF alone as inhibitory activity 0%, and that of the cell obtained by NGF free culture for 2 days as inhibitory activity 100%, the inhibitory activity of the aptamer was calculated from the neurite length per cell obtained by culturing with the addition of NGF and the aptamer in mixture.

The target in data set [2] is T1, NGF (nerve growth factor). The data set can be described thus: cell_activity; TF-1 cell proliferation inhibition. Here is the method:
Two NGF receptor (human TrkA and human p75) genes were introduced into TF-1 cells (ATCC Number: CRL-2003), which is a human erythroleukemic cell line, by using a retrovirus vector to give cells that highly express two receptors simultaneously and stably. The cells were suspended in an RPMI-1640 medium containing 20% fetal bovine serum, and seeded in a white 96 well flat-bottom plate at 1000 cells (50 μL) per well. […] With the amount of luminescence per well obtained by the addition of NGF alone and culture of the cells for 3 days as inhibitory activity 0%, and that of the well obtained by NGF free culture for 3 days as inhibitory activity 100%, the inhibitory activity of the aptamer was calculated from the amount of luminescence per well obtained by culturing with the addition of NGF and the aptamer in mixture.

In data set [3] the target is T1, NGF (nerve growth factor). Briefly: SPR; strong inhibition of NGF-receptor binding. Here is the method:
As directed in BIAcore's protocol, Protein A (21181, PIERCE) was immobilized on a CM5 sensor chip. About 700 to 1200 RU of human TrkA fused with the Fc portion of IgG (175-TK, R&D systems) or human P75 (367-NR, R&D systems) was immobilized thereon. As the analyte, a mixture of NGF (0.1 μM) and each aptamer (0.3 μM) was injected after being allowed to stand for 30 minutes. […] When NGF binds stronger to a receptor than an aptamer, the aptamer may be removed and NGF may bind to the receptor. Before starting the inhibition experiment, binding of TrkA or p75 and NGF was confirmed.
(In general: SPR reads the build-up and loss of mass on a sensor chip optically.)

Data set [4] addresses T1, NGF (nerve growth factor). Briefly: SPR; more than 40N. How it is done:
As the measuring apparatus, BIAcore2000 manufactured by BIAcore was used and, as the sensor chip, CM5 that reacts with an amino group was used. […] For the reaction of an amino group on the protein side and a carboxyl group on the chip side, ethyl-3-carbodiimide hydrochloride and N-hydroxysuccinimide were used. After the reaction, blocking by ethanolamine-HCl was performed. The immobilized amount of NGF was set to 3,000-4,000 RU. An aptamer for analyte was prepared to 0.15 μM-0.5 μM. As a running buffer, solution A was used. Here, solution A is a mixed solution of 145 mM sodium chloride, 5.4 mM potassium chloride, 1.8 mM calcium chloride, 0.8 mM magnesium chloride, 20 mM Tris (pH 7.6), 0.05% Tween 20. As a regeneration solution, a mixed solution of 1M NaCl and 50 mM NaOH was used. NGF was immobilized on FC2, and the results of FC1 were subtracted to give a final sensorgram.
The binding activity of these aptamers to NGF was evaluated by the surface plasmon resonance method in the same manner as in Example 1.

The target in data set [5] is T1, NGF (nerve growth factor). Briefly: SPR; strong binding.
Data set [6] deals with T1, NGF (nerve growth factor). Briefly: SPR; strong neurite inhibition at 10 nM.
The target of data set [7] is T1, NGF (nerve growth factor). Briefly: SPR; binding maintained.
Data set [8] deals with T1, NGF (nerve growth factor). The data set can be described thus: cell_activity; neurite; TF-1 <0.3.

Data on 29 molecules can be found in US20140235701, “NGF APTAMER AND APPLICATION THEREOF” (RIBOMIC INC., published 2014).

As usually defined, the IC50 is the midpoint of a concentration-inhibition curve. Higher therefore signals weaker potency in that assay.

T1 sequence (P01138 122-241, one chain of several): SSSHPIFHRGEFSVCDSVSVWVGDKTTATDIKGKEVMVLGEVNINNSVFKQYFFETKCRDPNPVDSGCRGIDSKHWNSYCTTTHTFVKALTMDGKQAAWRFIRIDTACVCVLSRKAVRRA

B1: SEQ ID NO: 162 (ssRNA)
RNA: GGGUCCUGGAUAAGAGTUUCCGUCUCGUAUCCTGUUACCC
modifications: 2'-F C5,U7,U18,U19,C20,C24,U25,U36; dT17,dT33; 2'-OH G8,G34; 2'-H A; 2'-OMe all other; idT 5' and 3'
Consider B1, for which the IC50 in data set [1] was 0.033 nM; in data set [2], 0.014 nM.

B2: SEQ ID NO: 4 (ssRNA)
RNA: GGGAGAACUUCGACCAGAAGUACGUUAGUACGUUUGCAUAUGUACAACCUUGCAUACGAUACGUAGAUUAUGUGCGCAUACAUGGAUCCUC
modifications: 2'-F C and U; 2'-OH G; 2'-H (deoxy) A
For the molecule B2, the binding result in data set [3] is on record as “binds”.

B3: SEQ ID NO: 2 (ssRNA)
RNA: GGGAGAACUUCGACCAGAAGUCCAAACGGGACUUUAUACCUCUGAGUCGCCUACGCUCCUAUGUGCGCAUACAUGGAUCCUC
modifications: 2'-F C and U; 2'-OH G; 2'-H (deoxy) A
B3: the binding result in data set [3] is on record as “binds”.

B4: SEQ ID NO: 5 (ssRNA)
RNA: GGGAGAACUUCGACCAGAAGUUAGAAGAGGACUAGUUGCUAAUGCCCUGGUUCGUCGCUAUAUGUGCGCAUACAUGGAUCCUC
modifications: 2'-F C and U; 2'-OH G; 2'-H (deoxy) A
As for B4, the binding result in data set [3] is “binds”. Take GUGCAAUACUUUCGCGGCAUAUGUGCAAACCUUGCCACGACUAUGUGCGC (ssRNA, 2'-F C and U; 2'-OH G; 2'-H (deoxy) A) [SEQ ID NO: 20]: the binding result in data set [4] is listed as “binds”.

B5: SEQ ID NO: 7 (ssRNA)
RNA: GGGAGAACUUCGACCAGAAGACGCACCUCUUAUCACACAUGCGUCAGCCUUGUGAUACUAUGUGCGCAUACAUGGAUCCUC
modifications: 2'-F C and U; 2'-OH G; 2'-H (deoxy) A
For B5, in data set [3], the binding result is recorded as “binds”.

With GGGUCCUGCUGCGCAGUUUCCGUCUGCGUGGCUGUUACCC (ssRNA, 2'-F C and U; 2'-OH G; 2'-H (deoxy) A) [SEQ ID NO: 39], in data set [5], the binding result was “binds”. With GGGUCCUGCUGCGUAGUUUCCGUCUGCGGAGCUGUUACCC (ssRNA, 2'-F C/U, dA, 2'-OH G) [SEQ ID NO: 94], the binding result in data set [6] is on record as “binds”.

On to GGGUCCUGUUGCGUAGUUUCCGUCUGCGUGGCUGUUACCC (ssRNA, 2'-F C/U, dA, 2'-OH G) [SEQ ID NO: 69], for which the binding result in data set [7] is “binds”. For the molecule GGGUCCUGCUGCGUAGUUUCCGUCUAUGUGGCUGUUACCC (ssRNA, 2'-F C/U, dA, 2'-OH G) [SEQ ID NO: 96], the binding result in data set [6] is on record as “binds”. As to GGGUCCUGCCGCGUAGUUUCCGUCUUCGCGGUUGUUACCC (ssRNA, 2'-F C/U, dA, 2'-OH G) [SEQ ID NO: 93], in data set [6], the binding result is reported as “binds”. Turning to GGGUCCUGCUGCGGAGUUUCCUUCUUCGUGGCUGUUACCC (ssRNA, 2'-F C and U; 2'-OH G; 2'-H (deoxy) A) [SEQ ID NO: 43], the binding result in data set [5] is on record as “binds”.

Turning to GGGUCCUGCUGCGCAGUUUCCCUCUGCGUGGCUGUUACCC (ssRNA, 2'-F C and U; 2'-OH G; 2'-H (deoxy) A) [SEQ ID NO: 42], in data set [5], the binding result is given as “binds”.

For GGGUCCUGCUGCGUAGUUUCCAUCUGCGUGGCUGUUACCC (ssRNA, 2'-F C and U; 2'-OH G; 2'-H (deoxy) A) [SEQ ID NO: 40], the binding result in data set [5] was “binds”. Take GGGUCCUGUUGCGUAGUUUCCGUCUACGUGACUGUUACCC (ssRNA, 2'-F C/U, dA, 2'-OH G) [SEQ ID NO: 64]: the binding result in data set [7] was “binds”. On to GGGUCCUGUUGCGUAGUUUCCUUCUACGUGGCUGUUACCC (ssRNA, 2'-F C and U; 2'-OH G; 2'-H (deoxy) A) [SEQ ID NO: 45], for which, in data set [5], the binding result is “binds”. As for GGGUCCUGCUACGGAGUUUCCGUCUCGGUGGCUGUUACCC (ssRNA, 2'-F C/U, dA, 2'-OH G) [SEQ ID NO: 65], in data set [7], the binding result is on record as “binds”. In the case of GGGUCCUGCUACGUAGUUUCCGUCUACGUGGCUGUUACCC (ssRNA, 2'-F C/U, dA, 2'-OH G) [SEQ ID NO: 98], the binding result in data set [6] was “binds”.

For the molecule GGGUCCUGCUGCGAAGUUUCCUUCUUCGUGGCUGUUACCC (ssRNA, 2'-F C and U; 2'-OH G; 2'-H (deoxy) A) [SEQ ID NO: 41], the binding result in data set [5] is listed as “binds”. Take GGGUCCUGCUGCGUAGUUUCCGUCUUCGCGGUUGUUACCC (ssRNA, 2'-F C/U, dA, 2'-OH G) [SEQ ID NO: 75]: in data set [7], the binding result was “binds”.

Turning to GGGUCCUGCUACGUAGUUUCCGUCUGCGUGGCUGUUACCC (ssRNA, 2'-F C/U, dA, 2'-OH G) [SEQ ID NO: 97], the binding result in data set [6] is “binds”. For GGGUCCUGCUGCGUAGUUUCCGUCUACGUGGCUGUUACCC (ssRNA, 2'-F C/U, dA, 2'-OH G) [SEQ ID NO: 63], the binding result in data set [7] is on record as “binds”.

GGGUCCUGCUGCGUAGUUUCCAUCUUCGUGGCUGUUACCC (ssRNA, 2'-F C/U, dA, 2'-OH G) [SEQ ID NO: 95]: in data set [6], the binding result is listed as “binds”. As for GGGUCCUGUACAAGAGUUUCCGUCUCGUGUACUGUUACCC (ssRNA, 2'-F C/U, dA, 2'-OH G) [SEQ ID NO: 83], the IC50 in data set [8] was less than 0.3 nM.

B6: SEQ ID NO: 17 (ssRNA)
RNA: AGAAGUGCAAUACUUUCGCGGCAUAUGUGCAAACCUUGCCACGACUAUGUGCGCAUAC
modifications: 2'-F C and U; 2'-OH G; 2'-H (deoxy) A
Take B6: in data set [4], the binding result is on record as “binds”. Same read-out and setting: the result for GCAAUACUUUCGCGGCAUAUGUGCAAACCUUGCCACGACUAUGUGC (ssRNA, 2'-F C and U; 2'-OH G; 2'-H (deoxy) A) [SEQ ID NO: 19] reads “binds”; that for UGCAAUACUUUCGCGGCAUAUGUGCAAACCUUGCCACGACUAUGUGCG (ssRNA, 2'-F C and U; 2'-OH G; 2'-H (deoxy) A) [SEQ ID NO: 18], “binds”; that for GGGAAUACUUUCGCGGCAUAUGUGCAAACCUUGCCACGACUAUGUCCC (ssRNA, 2'-F C and U; 2'-OH G; 2'-H (deoxy) A) [SEQ ID NO: 21], “binds”.

B7: SEQ ID NO: 3 (ssRNA)
RNA: GGGAGAACUUCGACCAGAAGUUGGCACAUCCUGCUGCGUAGUUUCCGUCUCCGUGGCUGUUAUGUGCGCAUACAUGGAUCCUC
modifications: 2'-F C and U; 2'-OH G; 2'-H (deoxy) A
As for B7, in data set [3], the binding result is recorded as “binds”.
